Source: a protein production outcome set (Wang et al. 2014)

assay: label from the status in PepcDB records

Sequence	protein production
MARCAVFLEELWFALFAWVPTVLGTAVRLVAWRPLFRLLGGVCGKVRFGQSLTLQGAGHMRLADGVRLGKGCHLYARTGELVMGENAALNINVVVDADGGTVRIGAHATVGPGTVIRAANHRFDRLDTPIMFQGHEYGEVVIDDDVWIAANCTVVPGVHIGRGAVVGAGAVVTKDVEPYTVVAGVPARFIRRRGPAE	failed
MARFALVLHAHLPYVRAHGMWPFGEETLYEAMAETYLPLIRVLERLRAEGVEAPFTLGITPILAEQLADARIKEGFWAYAKDRLERAQGDYQRYRGTALEASARHQVAFWELTLDHFQRLSGDLVAAFRKAEEGGQVELITSNATHGYSPLLGYDEALWAQIKTGVSTYRRHFAKDPTGFWLPEMAYRPKGPWKPPVEGPPEGVRPGVDELLMRAGIRYTFVDAHLVQGGEPLSPYGEAALGPVESQEATYHVHELESGLRVLARNPETTLQVWSADYGYPGEGLYREFHRKDPLSGLHHWRVTHRKADLAEKAPYDPEAAFAKTEEHARHFVGLLERLAGRHPEGVILSPYDAELFGHWWYEGVAWLEAVLRLLAQNPKVRPVTAREAVQGPAVRTALPEGSWGRGGDHRVWLNEKTLDYWEKVYRAEGAMREAARRGVLPEGVLRQAMRELLLLEASDWPFLMETGQAEAYARERYEEHARAFFHLLKGASPEELRALEERDNPFPEADPRLYLFREA	not failed
MARFRDELLLASLIALAALILLRGLGNDSLGFPDADRILMDSVFLRDLLVDLPLADPIGYTKDYFVQYPALSIGYRPPFFPFVAALLQLLVGPEMWATRLALFGFVLVGVASSYFWIRRHYGPWPAWGATALWLTTPYLAQWGWYTMAELTVLSMALLAANLFDKYLAEGKPALLYWSVLAVALAAWTKQTALFLLPWFAAMALAEGRFLAILRRREAWIAAFGLGVLLAPLVAMTLMLGDLNLEQSVGGTNRWTLANWTVRLKTILHHLTPPLLALSVVGAIWAGLKRDRHGLPFALLIVVVYGVFSYISGKNDRYPIFWVPAFALFAVLPFHFLSQRLPAKATVPALALGVGVLAAYQGSLAFTKTPSYATGYKEAAAYVLDSSETPIVFVDAYNNGYFTYFMRALDQGRSMVVLRGDKLLSSSAINMATKVEVHAEGRQEIEEIFRSLGVSLIVVEERNYTGLDVHDELRRFLKTDSFELVQAIPIHSNRTVSVLADFPPLGGQDLLVYRYKDAKTLTSGVVSLRLPVVGQTLSVDMETMMERRRAHP	failed
MARGEGEFYLAGRRLTGFLSAMTYAATTYSSFMIVGLVGLAYFTGIGSLVFELAYLVATVILLSLFSRRVWRMSRERGWVSPGEMLADLLGSPWVALTASLVFLVSLVPYASAQLKGIAETIVAIAGYSPGDNTAYMVAVGVALLILLAWSLLAGVRGVVLTDAFQGLWMLTAGSLLFLWLASRVFSKSGASEVLSAMESAGLFDMWSATLLIGFVTPWVFFAVTNPQVVQRLYMPKDEESLRRMILYFFLFGLYYTVLVVAIGFLARAGVELGILSIEPQGRDQVTPQLLSLAHPLLAALVFTSIVAASVSTADSIILALASSASRDIGLLVLRLDEKGRLRLGYAAAALFTVLMAVFAATRIGYIVQLSVLSSVMLLGLAPVTIAAWVGLRVHPALAVASIATGPVLVAANVLYSLAVGGEVSLSPAKQVLGVPISVWVLAISLALTAAGIALVRGRR	failed
MARGIWGVDSAQVVTDQLFQCVRTELGYPKFWGRYLSEVPNVSEGLTRDEIVRIRNYGVKVLPIYNAFREAVGYANGQVAARNAVFHARRLGIPKNKLLFANIEDFFAVDAAWIAAWVETLYPTGYRPGLYADPTKGDFAAAYCEAVSRNNQVAVQAVIWSAAPRPGTTKEQKAPRYQPAAPPCSANVWVWQYGRDAEVCPVDTNLADRRLLDFLY	not failed
MARHLITSALPYINGIKHLGNMVGSMLPADVYSRYLRQRGHDVLYICATDEHGTPAELAAKERGLPVDEFCAQAHDAQKAVYDGFELAFDYFGRSSSEQNREITQHFARRLNENGFIEERAIRQVYSPADGRFLPDRYVEGTCPHCGYDKARGDQCENCTRVLDPTDLINPRSAISGSTDLEVRETKHLFLLQSKLQHEVEEWVARHEEEWPQLASSIARKWLNEGLHDRAITRDLDWGVPVPADTWPELAAEGKVFYVWFDAPIEYIGATKEWSDLDPENRDWKSWWYDADSGENPVRYTEFMAKDNVPFHTVMFPATELGVREPWKKVDYVKAFNWLTYYGGKFSTSQKRGVFTDHALEILPADYWRYFLIANAPESDDSSFTWEHFTATVNKDLADTLGNFVNRVLSFSKKRFGEEVPAGAPAGESETKLGEEIAALLAEYESHMETLQFRKAAAALRALWSAGNSYLEEKAPWLEIKTNPEGAALTLRTAMNLIHLYSVVSEPFIPASSKAMRSAFALSEDTATWVTQDEAKSLDSVPAGTPFTVPPVLFAKITDEDLESYKERFGGAPE	failed
MARIKLDFPDTAFTFETRLPVRITDINGANHLGNDALISMLSEARAQFLVEHGIEEAGHDGVGIIVTDLATMYQGESFYPDMLRFEVGLMDFNKYGGDFVFRVTKADSGQPVALAKYGFVFFNYQSREVTPMPESFRARFA	failed
MARKKITLVGAGNIGGTLAHLALIKQLGDVVLFDIAQGMPNGKALDLLQTCPIEGVDFKVRGTNDYKDLENSDVVIVTAGVPRKPGMSRDDLLGINIKVMQTVGEGIKHNCPNAFVICITNPLDIMVNMLQKFSGVPDNKIVGMAGVLDSARFRTFLADELNVSVQQVQAYVMGGHGDTMVPLTKMSNVAGVSLEQLVKEGKLKQERLDAIVSRTRSGGGEIVALLKTGSAYYAPAAAGIQMAESFLKDKKMILPCAAKVKAGMYGLDEDLFVGVPTEISANGVRPIEVEISDKEREQLQVSINAIKDLNKAAAEILAK	not failed
MARKNQKAPWEPEEEIIWVSKSEMKRDMEELQKLGEELVGLKPAVLEKFPLSEDLREAIADAQRFKNEARRRQLQRIGKLMRYEDPEPIQAALDKVRNKHSQATAALHKLEMLRDRVVEEGDKAIDDVMELYPEADRQRLRQLARQAAKEKKAGKPAKSYREIFQILKALNEEE	not failed
MARKTAQSKRGVFNMDRLTSMAVFVKAVDLGSFAAAAEALGLSGPMVGKHVRSLEDRLGVQLINRTTRRQSLTEFGYVYYERCRVVLAEAQAADALASDQLSEPRGKLRVTMPVHFGRHCVTPVLLELARKYPALELDLSFNDRIIDLAEDGFDLSIRTGVLEDRAGLIARRVARQPMIVCASPSYLESHGCPEAPEDLAQHAAVVYRRSGPVSPWLFPRPGQSSSEVTPLHRFRLDDLDAIADAAARGLGLAWLPYWLVRGRIEAGTLVRLLPEQPPFLYDCHAVWLQTPHLPLKVRVAVDALAAQLPSFMT	failed
MARLHPIYSGQSDRPAILFVHGLDGHWLETWRHDACSKDDCWPHWVGEETGCDIWSLEYDAALSGWLDQAMPLPDQGSQVMDLLASAPALKGKPLVFVTHSLGGILVKTALVYGAEEDRRFQHIVDHVLGVVFIATPHSGAQLATLARVIKYLLRINPPVGNLEHHDPHLRTLNRRYQTLVKERGIEGYVYAEKRGVKIGPRGFGGWLRRIEPTVMVVDPGSTDPSLPEIQPISLAEDHISICKPPDRQQQIHLSLCHVLKEKIIPLAGDRGMGTTGVGLKLLESGTAQENPAAHMPPGRLVGPDDNRLSPREGKVYGRKTQENDVLAFLKGSEPVKVVGGVAGVGKTEVCKAALKTWLHTSPRPVAYYVRVPDRARSADLVLQVGKAVGIENCESLAQLLGVIPVGLYYLDNLESVADDQEGRNALRDLAQKPGVRILASSRTRLDTIFGAPIEIKCLSAPDALALFRDLWPPTQTLPKDDELQAFVIGKLGGHALSLVLVARLGMCLSFDALRRRWDEEGAALACDGVEDDTRTSNLTFNLRLTAEVLAPTPGALSVWVLMALFEEGIPEAVLEEVERRGQWPTLARHRLAVHHLISKRGDRWFLPPPVARYARYAAVTEQDGFCWRKSRQPILDLFLVFAEKASSFDSSPETLKAKKWILEFFNTISIVIECELESNVQNKFWLNRMSYFLRDIYQQRIAVSPALLRKLADAGIQPANTLRSLGDLASRLGQVDKARSLYEKALGLSQQEQSGLGQANALKALGDLASRLGQVDKARSLYETALGLFQQEQHGLGQANTLHGLGDLASQLGQVDKARSLYEKALGLFQQEPNGLGQANTLKSLGALEYRLGQVDKARSLYEKAVDLYRIEQEPLGLAYSLTNLALCFEVLKNLSKRNQVLKAAFVASRDANNEIVQIYLKEAIPEMPGADVLYDSWLKGQSR	failed
MARLNVNPTRMELSRLKKQLTTATRGHKLLKDKQDELMRRFIALVKENNELRIQVEQEVTDALSNFVLANATLNEAFIEELVAIPAEKVELEIIEQNILSVPVPKMIFDYDESVQEAPLDYGYVNSNSELDQAFAKISSILPKLLALANVEKTCQLLSKEIEKTRRRVNALEYMTIPQLEETIYYIQMKLEENERGEITRLIKIKSMNKENLEHHHHHH	failed
MARMGGKKHLKALVAPKFWPILRKEYKWAVKPSPGPHPIERCFPLLIIVRDILGYAKTAREARKLISEGHFKVDGRVRKNYKYPVGLMDVIEIVDTGETYRVIPVPVKVLGLIEIDKEEAKYKLSRIENKTTVKGGHIQLNLHDGRNVLIKVSDPKNPVEDIYKTLGTLQISIPEQQILNYIPLDEGTLVIISGGRNVGRVGKVVSIHKGIRRHRSIVTIEDKHGNKFQTSLTYVFPIGKEEPLIKLPEGAW	failed
MARNSDNDMCKEERKRESFFKVLQRVDISSENMRALPYDFVRSFSNNELSRKMKIKARWGSSWEVEICKNPRFYFMEKSGWEKFVSDNALGASEFLTFTHKGNMRFTVNIFMQDGKEMLQPPQSMSFMASSRPPKREQGIPSLATTIAAESNGGGNYKRKLNFEKKKAEESHNSKRTDKVFSVQRESAGASSSSVAEFSMFIKKSYLIYMWFPKSVQSIHMPKQRTIFKIHHPNMKKSWNVVYVVSGTKSSFSAGWKGLAQEYPLAVGDTCKFSFIKQHELILFVSKP	failed
MARPLVPSSQKALLLELKGLQEEPVEGFRVTLVDEGDLYNWEVAIFGPPNTYYEGGYFKARLKFPIDYPYSPPAFRFLTKMWHPNIYETGDVCISILHPPVDDPQSGELPSERWNPTQNVRTILLSVISLLNEPNTFSPANVDASVMYRKWKESKGKDREYTDIIRKQVLGTKVDAERDGVKVPTTLAEYCVKTKAPAPDEGSDLFYDDYYEDGEVEEADSCFGDEEDDSGTEES	failed
MARPQPCGPPHARCGSPSLPERPLQVKVVGLFSCPNFQIAKSAAENLKNNHPSKFEDPILVPLQEFAWHQYLQEKKRELKNETWEYSSSVISFVNGQFLGDALDLQKWAHEVWDIVDIKPSALYDALTEDFSAKFLRDTKHDFVFLDICIDSSPIGRLIFELYCDVCPKTCKNFQVLCTGKAGFSQRGIRLHYKNSIFHRIVQNGWIQGGDIVYGKGDNGESIYGPTFEDENFSVPHNKRGVLGMANKGRHSNGSQFYITLQATPYLDRKFVAFGQLIEGTEVLKQLELVPTQNERPIHMCRITDSGDPYA	failed
MARPRDRQKLDAVKVVETLDNLHARVSERFPASGLAMVCARLADTGRQTAARARRIGRPYLLLRALVVLIIVGGVALEFALAWRLDWSAALRAREGFDLAQGLEAAINLALLSGAAAWFLSSLERRWKQQRVQVALHELRSFCHVIDMHQLTKDPSVILGPRTRHSPPREMSNFQLSRYLDYCAEMLALTAKLAALYAGETDDPVIIAAVNDIETLASDLGRKIWQKIMILGQLNEAAAAQA	failed
MARSQQFPSSTAVSVSPPAASSIAKPPQPVLDGLWAFAPNRDTLGGTAYFLKLPQGNWLIDAPAWHGETQAFVEEQGGLQGVFLTHRGAFGKAIAIQQHFDCDLVVQEQEAYLLPGANVTTFEQEQAIAPALTAIWTCGHSPGSACLYWEGHGGVLFTGRHLLPTRAGGVAPLRTAKTFHWPRQIRNTQMLCDRFSSETLAWICPGASSGFLRGRKAIASAYMQLQQLDWSALSEAQPLL	failed
